According to article PMC3634016 (2013):

Target: Ca^2+-CaM pre-bound to the mammalian Cav1.2 IQ peptide (rat | human, UniProt P0DP29 1-149)
Assay: ITC; Ca2+; CaM pre-bound to Cav1.2 IQ

B1: mammalian NSCaTE_(Cav1.2) peptide (peptide)
peptide: SWQAAIDAARQAKLMGS
Kd: 1800 nM
